What was measured:
PacCZF-MBP [1] = molecular target: T1, PacCZF-MBP (Alternaria alternata (tangerine …, UniProt A0A177DU84 1-150)); assay: EMSA; […]; 28°C for 20 min; […]; buffer, […]; details: protein: recombinant; tags: MBP (pMAL-c5x); label: 3'-biotin; blunt
PacCZF-MBP [2] = molecular target: T1, PacCZF-MBP; assay: competition; excess unlabeled mutant vs labeled WT ACTT6 probe; […]; 28°C for 20 min; […]; buffer, […]; details: protein: recombinant; tags: MBP (pMAL-c5x); label: unlabeled; blunt

B1: ACTTR promoter WT probe (dsDNA)
DNA 1: ACGAACCACATCCTCGCCAAGGACATGAATGACACA
DNA 2: TGTGTCATTCATGTCCTTGGCGAGGATGTGGTTCGT
Does B1 bind (PacCZF-MBP [1])?
Result: binds

B2: ACTT6 promoter WT probe (dsDNA)
DNA 1: CGTGACTGACATCCCGCCAAGGCTAACCATCCGGGA
DNA 2: TCCCGGATGGTTAGCCTTGGCGGGATGTCAGTCACG
Does B2 bind (PacCZF-MBP [1])?
Result: binds

B3: ACTT6 promoter mutant competitor (dsDNA)
DNA 1: CGTGACTGACATCCCGAACCGGCTAACCATCCGGGA
DNA 2: TCCCGGATGGTTAGCCGGTTCGGGATGTCAGTCACG
Does B3 bind (PacCZF-MBP [2])?
Result: no binding

From publication PMC10715145
